In US20240327815A1:

Columns and labels:
[1] = biological target: B.1.1.7 (Alpha) SARS-CoV-2 spike protein, plate-coated (MSD) (SARS-CoV-2) (UniProt P0DTC2); assay: MSD competition vs labelled ACE2
[2] = biological target: B.1.351 (Beta) SARS-CoV-2 spike protein, plate-coated (MSD) (SARS-CoV-2) (UniProt P0DTC2); assay: MSD competition vs labelled ACE2
[3] = biological target: Delta SARS-CoV-2 spike protein, plate-coated (MSD) (SARS-CoV-2) (UniProt P0DTC2); assay: MSD competition vs labelled ACE2
[4] = biological target: Omicron SARS-CoV-2 spike protein, plate-coated (MSD) (SARS-CoV-2) (UniProt P0DTC2); assay: MSD competition vs labelled ACE2
[5] = biological target: SARS-CoV-2 Delta (B.1.617.2) spike RBD (SPR) (SARS-CoV-2) (UniProt P0DTC2); assay: SPR
[6] = biological target: SARS-CoV-2 Delta (B.1.617.2) spike RBD (SPR) (SARS-CoV-2) (UniProt P0DTC2); assay: SPR, 1:1 model
[7] = biological target: Alpha SARS-CoV-2 spike on pseudotyped lentivirus (SARS-CoV-2) (UniProt P0DTC2); assay: cell-based or functional assay
[8] = biological target: Beta SARS-CoV-2 spike on pseudotyped lentivirus (SARS-CoV-2) (UniProt P0DTC2); assay: cell-based or functional assay

Bamlanivimab + Etesevimab gave an IC50 [1] of 0.08 nM, an IC50 [2] of 0.31 nM and an IC50 [3] of 0.16 nM. It also gave an IC50 [4] of 0.59 nM.
With REGN10933 (Casirivimab) (antibody) the Kd [5] was 0.0696 nM and the Kd [6] was 0.0696 nM.
REGN10987 (Imdevimab) (antibody) showed a Kd [5] of 0.105 nM and a Kd [6] of 0.105 nM.
Sotrovimab (antibody) was tested, and the Pseudovirus Neutralization (IC50, nM) [7] was 3.32 nM and the Pseudovirus Neutralization (IC50, nM) [8] was 0.01 nM.
